The supplement of paper PMC7877785
± gives the uncertainty stated by the source.

Assay: self-splicing fitness, log relative to wild type (ln ratio); higher = more splicing; Tetrahymena group I intron in knt gene, E. coli kanamycin selection, DiMSum; sequences stand for … in CUCUCU…GGAGGGAAAAGUUAUCAGGCAUGCACCUGGUAGCUAGUCUUUAAACCAAUAGAUUGCAUCGGUUUAAAAGGCAAGACCGUCAAAUUGCGGGAAAGGGGUCAACAGCCGUUCAGUACCAAGUCUCAGGGGAAACUUUGAGAUGGCCUUGCAAAGGGUAUGGUAAUAAGCUGACGGACAUGGUCCUAACCACGCAGCCAAGUCCUAAGUCAACAGAUCUUCUGUUGAUAUGGAUGCAGUUCACAGACUAAAUGUCGGUCGGGGAAGAUGUAUUCUUCUCAUAAGAUAUAGUCGGACCUCUCCUUAAUGGGAGCUAGCGGAUGAAGUGAUGCAACACUGGAGCCGCUGGGAACUAAUUUGUAUGCGAAAGUAUAUUGAUUAGUUUUGGAGUACUCGUGGUCG
Procedure, shortened: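 Colonies from six replicate transformations of E. coli BL21(DE3) were pooled and amplicon-sequenced on an Illumina HiSeq 2500. The library placed an intron with all eight P1ex-region nucleotides randomised inside the knt kanamycin-resistance gene on pET-22b(+), and cells grew overnight at 37°C or 30°C on LB agar with or without 25 μg/mL kanamycin (plus 100 μg/mL carbenicillin, 50 μM IPTG, 0.2% rhamnose). Fitness is the DiMSum error-weighted combination of wild-type-normalised replicate fold changes, kanamycin versus none.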

Sequence	self-splicing fitness (ln) (30 °C)	self-splicing fitness (ln) (37 °C)
CUAAAGCAAUAUUACGCAGA	-3.64 ± 0.2	-3.29 ± 0.42
UGCAAGCAAUAUUACGCCCA	-0.543 ± 0.14	0.796 ± 0.23
CCCGAGCAAUAUUACGUUAC	-3.01 ± 0.35	-2.37 ± 0.32
CUCAAGCAAUAUUACGCACU	-3.2 ± 0.24	-2.08 ± 0.28
AUUGAGCAAUAUUACGGAGU	-3.76 ± 0.15	-1.86 ± 0.1
AGUGAGCAAUAUUACGGAGU	-2.86 ± 0.3	-3.09 ± 0.35
AAUGAGCAAUAUUACGAUUA	-2.57 ± 0.11	-1.37 ± 0.1
AGCUAGCAAUAUUACGUCAA	-4.05 ± 0.41	-2 ± 0.16
AUACAGCAAUAUUACGUCGU	-1.3 ± 0.07	-0.0346 ± 0.077
AAAUAGCAAUAUUACGUUGC	-2.63 ± 0.23	-2.98 ± 0.3
GCCGAGCAAUAUUACGCUCA	-0.335 ± 0.17	-0.829 ± 0.21
GUCUAGCAAUAUUACGUUUG	-2.11 ± 0.088	-1.62 ± 0.11
CUUCAGCAAUAUUACGACGU	-3.67 ± 0.21	-2.12 ± 0.21
CUCGAGCAAUAUUACGUAUU	-3.51 ± 0.15	-1.96 ± 0.14
GCUCAGCAAUAUUACGACGC	-0.319 ± 0.12	-0.102 ± 0.19
CAUAAGCAAUAUUACGUAAU	-4.04 ± 0.28	-2.16 ± 0.14
GACAAGCAAUAUUACGGGUA	-0.935 ± 0.066	-0.82 ± 0.069
ACAUAGCAAUAUUACGGACU	-0.288 ± 0.057	0.36 ± 0.074
UUCAAGCAAUAUUACGGUAG	-0.693 ± 0.096	-0.128 ± 0.13
CGGGAGCAAUAUUACGCGCC	–	-1.51 ± 0.43
AUGUAGCAAUAUUACGUGUG	-3.33 ± 0.23	-2.53 ± 0.15
GAGGAGCAAUAUUACGGAAC	-3.68 ± 0.44	-0.46 ± 0.28
AUGUAGCAAUAUUACGCGAU	-2.09 ± 0.2	-2.55 ± 0.24
UUCGAGCAAUAUUACGUCUG	-2.57 ± 0.24	-1.65 ± 0.22
UUACAGCAAUAUUACGUGCC	-2.86 ± 0.15	-0.031 ± 0.13
AUCUAGCAAUAUUACGCAAG	-1.46 ± 0.17	-1.29 ± 0.18

Sequence	self-splicing fitness (ln) (30 °C)	self-splicing fitness (ln) (37 °C)
CCUCAGCAAUAUUACGGAGA	-2.8 ± 0.18	-1.4 ± 0.15
GCUCAGCAAUAUUACGGUCU	-0.866 ± 0.087	-0.0674 ± 0.12
UUAAAGCAAUAUUACGGUUC	-3.46 ± 0.19	-1.81 ± 0.18
CUUAAGCAAUAUUACGCCAA	-2.46 ± 0.42	-2.43 ± 0.33
CGAAAGCAAUAUUACGACCA	-1.24 ± 0.14	-1.24 ± 0.15
UUCGAGCAAUAUUACGCUCG	-1.64 ± 0.25	-3.36 ± 0.42
AUAAAGCAAUAUUACGCGAU	-2.45 ± 0.15	-1.36 ± 0.16
CGUUAGCAAUAUUACGGGGC	-2.57 ± 0.15	-3.12 ± 0.28
GCAGAGCAAUAUUACGAUGG	-1.98 ± 0.098	-1.65 ± 0.12
GAAUAGCAAUAUUACGAACA	-0.419 ± 0.13	-0.622 ± 0.11
GUUGAGCAAUAUUACGUUGC	-2.03 ± 0.42	–
CAAGAGCAAUAUUACGUCUG	-1.45 ± 0.15	-0.511 ± 0.16
AUAAAGCAAUAUUACGCGCU	-0.372 ± 0.1	-0.603 ± 0.12
UGCAAGCAAUAUUACGUCCC	-1.37 ± 0.28	-0.65 ± 0.24
GGGUAGCAAUAUUACGCAUA	–	-0.676 ± 0.24
AGGGAGCAAUAUUACGCAGC	-2.92 ± 0.47	–
GUCCAGCAAUAUUACGACCU	-2.17 ± 0.19	-1.13 ± 0.2
CCCCAGCAAUAUUACGAAAG	-4.79 ± 0.23	-1.93 ± 0.12
AAUGAGCAAUAUUACGGCAA	-2.55 ± 0.34	-1.85 ± 0.35
CCGCAGCAAUAUUACGUUGG	-3.26 ± 0.22	-1.52 ± 0.2
GGAUAGCAAUAUUACGUCAA	-1.09 ± 0.19	0.00829 ± 0.15
CAUGAGCAAUAUUACGGUUU	-3.52 ± 0.2	-3.01 ± 0.24
UUGGAGCAAUAUUACGACUU	-1.94 ± 0.19	-0.866 ± 0.28
CUUCAGCAAUAUUACGGUGA	-3.2 ± 0.21	-2.67 ± 0.18
CUCCAGCAAUAUUACGGGAG	-3.68 ± 0.15	-1.91 ± 0.16
GGUUAGCAAUAUUACGUGGU	-2.69 ± 0.18	-0.78 ± 0.17

Sequence	self-splicing fitness (ln) (30 °C)	self-splicing fitness (ln) (37 °C)
GGUAAGCAAUAUUACGUUCC	-2.47 ± 0.18	-2.85 ± 0.24
UCCUAGCAAUAUUACGGGAA	-1.84 ± 0.21	-1.76 ± 0.14
UCGAAGCAAUAUUACGUGAC	-2.44 ± 0.19	-2.88 ± 0.21
AGGAAGCAAUAUUACGACCC	-0.677 ± 0.23	-1.73 ± 0.26
GUUGAGCAAUAUUACGAACU	–	-1.61 ± 0.27
GUUCAGCAAUAUUACGUCGA	-0.842 ± 0.15	-0.398 ± 0.13
AGCCAGCAAUAUUACGAAUC	–	-1.94 ± 0.39
CGUUAGCAAUAUUACGUUGU	-4.22 ± 0.29	-2.78 ± 0.22
CUCAAGCAAUAUUACGAGGG	–	-2.8 ± 0.43
UUAAAGCAAUAUUACGACAG	0.285 ± 0.1	0.0597 ± 0.14
AAUAAGCAAUAUUACGUCCU	-0.0473 ± 0.076	0.0333 ± 0.088
UAUCAGCAAUAUUACGCGCC	-1.34 ± 0.18	-0.193 ± 0.26
CAUUAGCAAUAUUACGGCCU	-3.52 ± 0.18	-2.21 ± 0.21
CUGUAGCAAUAUUACGUUUC	-3.58 ± 0.19	-2.99 ± 0.32
CCGUAGCAAUAUUACGAUUU	-3.55 ± 0.17	-2.08 ± 0.17
CCAGAGCAAUAUUACGUUAA	-4.07 ± 0.37	-2.91 ± 0.29
UCAGAGCAAUAUUACGACUU	-2.45 ± 0.19	-3.12 ± 0.38
AGCGAGCAAUAUUACGCGCA	-0.891 ± 0.23	-0.546 ± 0.2
CUACAGCAAUAUUACGCGUC	-3.92 ± 0.26	-2.77 ± 0.24
AAACAGCAAUAUUACGAUAG	-2.76 ± 0.1	-2.14 ± 0.12
GUGCAGCAAUAUUACGGUAU	-2.16 ± 0.12	-1.53 ± 0.15
GUCUAGCAAUAUUACGCGAU	-1.94 ± 0.21	-2.29 ± 0.23
CGUCAGCAAUAUUACGUAGG	-0.704 ± 0.055	0.23 ± 0.086
AGGCAGCAAUAUUACGAAAA	-3.77 ± 0.25	-2.26 ± 0.15
GCUCAGCAAUAUUACGUUUU	-1.13 ± 0.056	0.00509 ± 0.068
